Experimental data taken from article PMC5111828.

Key:
[1] = biological target: Bcl-2 associated athanogene 3 (Bag3) (UniProt O95817); assay: flow cytometry protein interaction assay
[2] = biological target: Bcl-2 associated athanogene 3 (Bag3) (UniProt O95817); assay: cross-linking
Bag3 (Homo sapiens) [3] = biological target: Bag3 (Homo sapiens) (UniProt O95817); assay: ITC; conditions: cited from earlier work
Bag3 (Homo sapiens) [4] = biological target: Bag3 (Homo sapiens) (UniProt O95817); assay: APCE; conditions: cited from earlier work
Hsp70 Alexa Fluor 488 = Hsp70 Alexa Fluor 488 (UniProt P0DMV8); assay: cross-linking
Hsp90 (Homo sapiens) = Hsp90 (Homo sapiens) (UniProt P07900); assay: size exclusion chromatography; conditions: cited from earlier work

Chain of Hsp70 (P0DMV8 2-641): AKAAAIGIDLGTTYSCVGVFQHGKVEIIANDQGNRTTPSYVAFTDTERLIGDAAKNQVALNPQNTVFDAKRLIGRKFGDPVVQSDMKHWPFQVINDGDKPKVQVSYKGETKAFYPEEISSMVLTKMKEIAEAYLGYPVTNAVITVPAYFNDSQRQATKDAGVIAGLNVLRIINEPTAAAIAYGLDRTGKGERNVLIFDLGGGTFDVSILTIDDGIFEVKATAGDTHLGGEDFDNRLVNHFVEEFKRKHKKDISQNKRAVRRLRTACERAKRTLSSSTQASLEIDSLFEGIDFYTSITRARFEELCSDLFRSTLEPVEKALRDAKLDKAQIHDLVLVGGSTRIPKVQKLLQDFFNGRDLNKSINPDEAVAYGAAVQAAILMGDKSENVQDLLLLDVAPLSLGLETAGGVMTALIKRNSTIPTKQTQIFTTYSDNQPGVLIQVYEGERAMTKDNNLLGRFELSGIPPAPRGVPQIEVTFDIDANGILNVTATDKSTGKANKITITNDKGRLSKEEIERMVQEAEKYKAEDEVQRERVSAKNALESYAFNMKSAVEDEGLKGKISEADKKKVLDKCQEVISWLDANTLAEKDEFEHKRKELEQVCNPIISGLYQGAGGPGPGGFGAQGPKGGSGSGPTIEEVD

For “unlabeled Hsp70 (Wild-Type) (from UniProt P0DMV8 1-641) (natural protein)”, the Ki [1] was 15 nM.

Work on “Hsp70 R,R 258,262 A,A (from UniProt P0DMV8 1-641) (natural protein)” yielded a Ki [2] of 400 nM.

In the case of Hsp70 (from UniProt P0DMV8), the Kd (Bag3 (Homo sapiens) [3]) is listed as 15 nM and the Kd (Bag3 (Homo sapiens) [4]) is listed as 23 nM.

For “Bcl-2 associated athanogene 3 (Bag3) (from UniProt O95817 1-575) (natural protein)”, the Kd (Hsp70 Alexa Fluor 488) was 25 nM.

In the case of Hsp90 (from UniProt P07900), the Kd (Hsp90 (Homo sapiens)) is given as 60 nM.

“Hsp70 E,D 283, 292 A,A (from UniProt P0DMV8 1-641) (natural protein)” showed a Ki [2] of 160 nM.
